Experimental data as given in patent publication US11285283B2, “Methods for generating and delivering droplets to the pulmonary system using a droplet delivery device” (PNEUMA RESPIRATORY, INC., priority 2016, dated 2022).
“And” between values parts separate entries of the source, which are not always exact repeats. Equal entries are not always repeated.

Assays:
[1] = Enbrel stability after aerosol generation, size exclusion chromatography; format: physicochemical; settings: for Peak 1 Peak Area % / Peak 2 Peak Area % / Peak 3 Peak Area % / Peak 4 Peak Area % / Peak 5 Peak Area %: replicate samples
Description: Alternately, to determine the stability of active agent after droplet generation, the generated stream of droplets including the active agent may be collected and […] may be employed to monitor for any changes in large molecule aggregation and protein fragment content. Soluble protein aggregates and protein fragment content may be calculated by comparing respective peak area under the SEC-HPLC curve of dispensed protein solutions with controls (solutions remaining in the device reservoir). Drug solutions for testing include Enbrel, (ENBREL® single-use prefilled syringes in 25 mg (0.51 mL of a 50 mg/mL solution of etanercept), and insulin, (Humalog, 200 units/ml, 3 ml […] is performed with a YarraTM 3 μm SEC-2000 LC column 300×7.8 mm, SecurityGuard cartridge kit and SecurityGuard cartridges GFC-2000, 4×3 mm ID. Fifty microliters of Enbrel from the syringe (ENBREL® single-use prefilled syringes in 25 mg/0.51 mL of a 50 mg/mL solution of etanercept) is diluted (4:1) (4 parts, 200 mcl of the mobile phase buffer solution to 1 part, 50 mcl Enbrel from syringe). Fifty microliter of the diluted Enbrel is injected and separation was performed at a flow rate of 1.0 ml/min. The mobile phase buffer system included a PHOS. BUFF. SALINE. […] UV detection is performed at 280 nm. […] An ampule/cartridge is filled with […] of Enbrel® (50 mg/ml) diluted 4:1 (10 mg/ml)(4 parts (200 mcl) of PBS and 0.025% NaN3 and 1 part (50 mcl of Enbrel solution from the syringe). After 20 actuations and aerosolization, about 150 mcl of the aerosolized Enbrel solution is recovered and collected in the polypropylene tube located below the ejector mechanism. The control consists of the diluted Enbrel solution, 50 mcl of which is injected into the SEC column for analysis.

[2] = Gel electrophoresis of active agent after droplet generation; format: physicochemical; settings: after droplet generation with the device
Description: To determine the stability of active agent after droplet generation, the generated stream of droplets including the active agent is collected and the molecular weight of the active agent is verified using gel electrophoresis.

[3] = Insulin stability after aerosol generation, size exclusion chromatography; format: physicochemical
Description: Alternately, to determine the stability of active agent after droplet generation, the generated stream of droplets including the active agent may be collected and SEC-HPLIC may be employed to monitor for any changes in large molecule aggregation and protein fragment content. Soluble protein aggregates and protein fragment content may be calculated by comparing respective peak area under the SEC-HPLC curve of dispensed protein solutions with controls (solutions remaining in the device reservoir).
Drug solutions for testing include Enbrel, (ENBREL® single-use prefilled syringes in 25 mg (0.51 mL of a 50 mg/mL solution of etanercept), and insulin, (Humalog, 200 units/ml, 3 ml kwikpens)
To calculate and compare effects of droplet generation through an ejector mechanism of the disclosure, the total area under the curve of the UV signal at 280 nm versus elution time for controls is compared with the aerosolized samples, which is set to 100%.
Aerosol collection and SEC is performed in a similar fashion as for the Enbrel analysis and aerosol collection.
Fifty microliters of the collected aerosol spray is injected onto the SEC column for analysis, while 50 mcl of the Kwikpen insulin solution is injected onto the SEC column for control samples.

[4] = test system: patients with cystic fibrosis; settings: cited from earlier work
[5] = Anderson Cascade Impactor testing of droplet delivery device with Albuterol sulfate (Example B); format: physicochemical
Description: Droplet size distribution and related functionality was evaluated for exemplary droplet delivery devices of the disclosure, including Anderson Cascade Impactor testing, total drug mass output rates, total drug respirable mass, delivery efficiencies and reproducibility.
The study was designed to evaluate device performance of a single Pneuma™ inhaler. A series of three (3) individual tests were conducted with a new disposable drug cartridge for each test. The testing platform utilizes an eight-stage nonviable Anderson Cascade Impactor (Thermo Fisher Scientific; Waltham, Mass.) equipped with a calibrated AALBORG model GFM47 mass flow meter (AALBORG Instruments and Controls; Orangeburg, N.Y.) for flow rate measurement.
At the conclusion of each test, the mouthpiece was rinsed with mobile phase and collected for HPLC analysis to determine the mass fraction of non-respirable aerosolized drug captured in the mouthpiece via inertial filtering. Following each test, impactor stage samples were extracted and recovered in solvent and analyzed for the active pharmaceutical ingredient (API) using a Dionex Ultimate 3000 nano-HPLC with UV detection (Thermo Scientific, Sunnyvale, Calif.).
The cascade impactor testing procedure involved fitting the mouthpiece into the Impactor USP throat with a mouthpiece connection seal. The vacuum pump supplying sample air flow to the cascade impactor was turned on and the pump control valves adjusted to supply 28.3 L/min total flow through the impactor and inhaler body during aerosol tests.
The device was connected to the impactor USB throat, turned on, and actuated ten (10) times for each test. At the conclusion of the test period, the device, impactor, and dilution air sources were turned off. The i mouthpiece was rinsed in order to extract drug, and all stages of the cascade impactor were rinsed with a quantity of appropriate solvent (HPLC mobile phase). Extracted samples were placed in labeled and sterile HPLC vials, capped, and analyzed for drug content via HPLC with UV detection. The mouthpiece was extracted of residual drug and analyzed for drug content via HPLC to measure mouthpiece drug deposition in relation to the total collected on the impactor stages.
All system flow rates and impactor sample flows were monitored throughout each test period. Following each test, the impactor slides were placed in labeled sterile Petri dishes, and impactor stages were extracted of drug using 2 ml of mobile phase applied with a calibrated micropipette. All extracted samples from the mouthpiece and impactor were placed in labeled sterile amber HPLC sample vials, and stored refrigerated at approximately 2° C. until HPLC analysis.
Impactor collection stages for all tests were rinsed with DI water and ethanol, and air dried prior to each inhaler test trial to avoid contamination. A new inhaler drug cartridge was used for each of the three individual tests.
All drug content analysis was performed using a Dionex Ultimate 3000 nano-HPLC equipped with a Dionex UVD-3000 multi-wavelength UV/VIS Detector using a micro flow cell (75 μm×10 mm path length, total analytical volume 44.2 nl). […] Total HPLC run time was 6 minutes per sample with approximately 5 minutes flush between each sample. Sample injection was performed with a 1 μl sample loop in full loop injection mode.
Buffer formulation contains reverseosmosis filtered deionized water with 1.13 gr of sodium 1-hexanesulfonate (Alfa Aesar) in 1200 ml of water, with 2 ml glacial acetic acid (Acros Organics) added. The mobile phase solution was mixed and filtered through a 0.45 μm filter membrane. The final mobile phase is a 60:40 dilution of Buffer: MEOH.

[6] = aerosolized, average of S1 and S2
[7] = Albuterol 0.5%, 28.3 lpm, 10 actuations

## etanercept [Enbrel]
[1]; aerosolized with test device
  dose forming molecular fragments with elution times of 13 and 25 minutes: 4.6%
  Peak 2 Peak Area %: 92.112% and 90.789%
  Peak 3 Peak Area %: 0.361% and 0.424%
[1]; aerosolized with test device, 20 actuations
  Peak 1 Peak Area %: 3.476% and 2.796%
[1]; aerosolized with test device, fragment, elution about 13 min
  Peak 4 Peak Area %: 0.352% and 0.357%
[1]; aerosolized with test device, fragment, elution about 25 min
  Peak 5 Peak Area %: 3.428% and 5.130% and 5.123%
[1]; [6]
  Peak 4 Peak Area %, Avg.: 0.3545
  Peak 5 Peak Area %, Avg.: 4.2755
[1]; control, Enbrel diluted 4:1 (10 mg/ml), not aerosolized
  Peak 1 Peak Area %: 2.428% and 3.041%
[1]; control, not aerosolized
  Peak 2 Peak Area %: 96.676% and 95.909%
  Peak 3 Peak Area %: 0.373% and 0.351%
  Peak 4 Peak Area %: 0%
  Peak 5 Peak Area %: 0%
[2]
  change in electrophoretic mobility / molecular weight of post-aerosol active agent versus control: negligible change

## adalimumab
[2]
  change in electrophoretic mobility / molecular weight of post-aerosol active agent versus control: negligible change

## Insulin: insulin, Humalog, 200 units/ml, 3 ml kwikpens
[3]; aerosolized with test device
  ejected dose forming a fragment which elutes at ~25 minutes: 2.5%
[3]; aerosolized with test device, 20 actuations, replicate samples
  Peak 1 Peak Area %: 27.881% and 28.721%
[3]; aerosolized with test device, replicate samples
  Peak 2 Peak Area %: 69.780% and 67.807%
[3]; aerosolized with test device, replicate samples, fragment, elution ~25 min
  Peak 3 Peak Area %: 2.184% and 2.797%
[3]; [6]
  Peak 3 Peak Area %, Avg.: 2.4905
[3]; control, Kwikpen solution 200 U/ml, not aerosolized
  Peak 1 Peak Area %: 29.926%
[3]; control, not aerosolized
  Peak 2 Peak Area %: 69.630%
  Peak 3 Peak Area %: 0%

## NC[C@H]1O[C@H](O[C@H]2[C@H](O)[C@@H](O[C@H]3O[C@H](CO)[C@@H](O)[C@H](N)[C@H]3O)[C@H](N)C[C@@H]2N)[C@H](N)C[C@@H]1O [tobramycin]
[4]; inhalation, without severe side effects to kidney functions
  pulmonary function after administration by inhalation: significantly improves pulmonary function
[4]; intravenous administration
  serum levels after intravenous administration: toxic to the kidneys

## bevacizumab
[2]
  change in electrophoretic mobility / molecular weight of post-aerosol active agent versus control: negligible change

## Albuterol sulfate
[5]; [7]
  droplets of an average diameter of less than about 5 μm: over 75%
  droplets with an average diameter of less than about 4 μm: over 70%
[5]; FILTER
  Cum. % <: 0.00%
  Cum. % >: 100.00%
[5]; Pre-separator, cut diam. 10 μm
  Cum. % <: 100.00%
  Cum. % >: 0.00%
